In this data set the target is WT capsid protein (RRV CP) (Ross River virus, UniProt P08491 1-270). Description: EMSA (native agarose gel shift, co-migration of protein and DNA); 3 uM CP, 3 uM DNA, 150 mM NaCl; CLP assembly. As to conditions: protein: recombinant; tags: 6xHis (N-terminal). (In general: Mobility shift assays separate free from complexed probe on a gel.)
Sequence of WT capsid protein (RRV CP) (P08491 1-270): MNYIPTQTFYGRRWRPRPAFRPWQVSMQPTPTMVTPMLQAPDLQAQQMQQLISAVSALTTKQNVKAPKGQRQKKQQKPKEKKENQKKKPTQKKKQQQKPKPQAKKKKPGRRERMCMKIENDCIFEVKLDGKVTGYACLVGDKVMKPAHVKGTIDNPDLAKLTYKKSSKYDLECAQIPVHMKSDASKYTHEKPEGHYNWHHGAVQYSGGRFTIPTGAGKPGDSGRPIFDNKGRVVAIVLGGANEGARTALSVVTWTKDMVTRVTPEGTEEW

As for GTTGACGTCACAGATGAGATATAAAGCATAAGGGACATGTTCAAACGG (ssDNA) [48-mer linear ssDNA oligomer (DNA cargo)], the binding result is “binds”.

For the origin of these results see PMC7472333.
